Assay results as given in patent publication US20150274828A1 (SHANGHAI SERUM BIOTECHNOLOGY, published 2015).

Tests used:
[1] = molecular target: T1, EGFR-Fc fusion protein (recombinant EGFR extracellular region-Fc) (human, UniProt P00533 25-645); assay: BLI ForteBio QKe, biotinylated EGFR-Fc on streptavidin sensor, antibody 20 nM; fold reduction of affinity, parent Ame55 = 1;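 further: parent antibody affinity set as 1, with values giving the fold drop in affinity of each mutant antibody relative to that parent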
T1 construct: extracellular domain; not shown: Fc part supplied by vector pABG1

[2] = molecular target: T1, EGFR-Fc fusion protein (recombinant …); assay: BLI ForteBio QKe, biotinylated EGFR-Fc on streptavidin sensor

B1: Ame55 mutant, light chain 89S(A1) (antibody, V domains shown)
VH: EVQLVQSGAEVKKPGESLKISCKGSGYSFTSYWIGWVRQMPGKGLEWMGIIYPGDSDTRYSPSFQGQVTISADKSISTAYLQWSSLKASDTAMYYCARGIIYPSNVAVWGQGTLVTVSS
VL: SYELTQPPSVSVAPGQTARITCSGDALGDKYASWYQQKPGQAPVLVIYEDSKRPSGIPERFSGSNSGNTATLTISGTQAEDEADYYCSSWDGDWGMPVFGGGTKLTVLG
notes: Mutant of Ame55
Affinity change [1]: 0.5 fold
fold increase of affinity against parent antibody Ame55 [2]: 4 times
